Assay results as given in PMC4918640.

Target: extracellular domain of PDGFRα-Fc conjugated (human) (UniProt P16234)
Test: SPR + BLI

Chain of UniProt P16234 (P16234 24-528): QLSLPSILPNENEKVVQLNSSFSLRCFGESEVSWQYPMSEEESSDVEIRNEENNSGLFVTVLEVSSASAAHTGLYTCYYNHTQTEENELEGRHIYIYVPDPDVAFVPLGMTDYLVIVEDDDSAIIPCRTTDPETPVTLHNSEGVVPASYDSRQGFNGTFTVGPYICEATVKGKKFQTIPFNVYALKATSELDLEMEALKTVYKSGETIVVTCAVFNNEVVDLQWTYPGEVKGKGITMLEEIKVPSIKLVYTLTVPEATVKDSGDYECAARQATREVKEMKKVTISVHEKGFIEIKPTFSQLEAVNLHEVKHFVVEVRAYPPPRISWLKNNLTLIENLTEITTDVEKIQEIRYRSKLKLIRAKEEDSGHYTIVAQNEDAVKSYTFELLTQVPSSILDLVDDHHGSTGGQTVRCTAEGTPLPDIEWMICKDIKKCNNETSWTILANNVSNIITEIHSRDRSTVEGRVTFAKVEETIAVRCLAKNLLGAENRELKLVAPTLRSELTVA

## soluble gHgLgO trimer (from UniProt P16832;P16750) (complex)
  Kd: 2 nM
